Test results: patent publication US20180179292

How the values were obtained:
[1] = target: RKIP^S153A, cardiac transgene
[2] = target: wild-type RKIP, cardiac transgene (RKIP-tg)

B1: G protein-coupled receptor kinase (GRK) in mouse heart lysates (protein)
chain: MADLEAVLADVSYLMAMEKSKATPAARASKKILLPEPSIRSVMQKYLEDRGEVTFEKIFSQKLGYLLFRDFCLNHLEEAKPLVEFYEEIKKYEKLETEEERVVRSREIFDSYIMKELLACSHPFSKNATEHVQGHLVKKQVPPDLFQPYIEEICQNLRGDVFQKFIESDKFTRFCQWKNVELNIHLTMNDFSVHRIIGRGGFGEVYGCRKADTGKMYAMKCLDKKRIKMKQGETLALNERIMLSLVSTGDCPFIVCMSYAFHTPDKLSFILDLMNGGDLHYHLSQHGVFSEADMRFYAAEIILGLEHMHNRFVVYRDLKPANILLDEHGHVRISDLGLACDFSKKRPHASVGTHGYMAPEVLQKGVAYDSSADWFSLGCMLFKLLRGHSPFRQHKTKDKHEIDRMTLTMAVELPDSFSPELRSLLEGLLQRDVNRRLGCLGRGAQEVKESPFFRSLDWQMVFLQKYPPPLIPPRGEVNAADAFDIGSFDEEDTKGIKLLDSDQELYRNFPLTISERWQQEVAETVFDTINAETDRLEARKKAKNKQLGHEEDYALGKDCIVHGYMSKMGNPFLTQWQRRYFYLFPNRLEWRGEGEAPQSLLTMEEIQSVEETQIKERKCLLLKIRGGKQFVLQCDSDPELVQWKKELRDAYREAQQLVQRVPKMKNKPRSPVVELSKVPLIQRGSANGL
GRK activity (in vitro rhodopsin phosphorylation with heart lysates; immunoblot of β2AR phosphorylation) [1]: GRK activity was significantly reduced in mouse hearts of RKIP-tg but not of RKIP^S153A mice | GRK activity (in vitro rhodopsin phosphorylation with heart lysates; immunoblot of β2AR phosphorylation) [2]: GRK activity was significantly reduced in mouse hearts of RKIP-tg
